In the Human Domainome abundance scans (Beltran et al. 2025):
± gives the uncertainty stated by the source.

B1: LIM and senescent cell antigen-like-containing domain protein 2, residues 13 to 71; numbered along this chain, Q7Z4I7 (parent)
chain: AVCQRCQARFSPAERIVNSNGELYHEHCFVCAQCFRPFPEGLFYEFEGRKYCEHDFQML

Variants of: B1
Experiment: abundance fitness (aPCA) (normalised: wild type 0, dead -1); higher = more abundant; growth selection in yeast, the domain comes from the species named
Conditions: Homo sapiens

| Variant | abundance fitness |
| --- | --- |
| AVCQRCQARFSPAERIVNSNGELYHEACFVCAQCFRPFPEGLFYEFEGRKYCEHDFQML | -0.175 ± 0.25 |
| AVCQRCQARFSPAERIVNSNGELYHEFCFVCAQCFRPFPEGLFYEFEGRKYCEHDFQML | -0.209 ± 0.43 |
| AVCQRCQARFSPAERIVNSNGELYHERCFVCAQCFRPFPEGLFYEFEGRKYCEHDFQML | -0.016 ± 0.18 |
| AVCQRCQARFSPAERIVNSNGELYHETCFVCAQCFRPFPEGLFYEFEGRKYCEHDFQML | -0.227 ± 0.39 |
| AVCQRCQARFSPAERIVNSNGELYHEHLFVCAQCFRPFPEGLFYEFEGRKYCEHDFQML | -1.08 ± 0.13 |
| AVCQRCQARFSPAERIVNSNGELYHEHMFVCAQCFRPFPEGLFYEFEGRKYCEHDFQML | -0.418 ± 0.15 |
| AVCQRCQARFSPAERIVNSNGELYHEHHFVCAQCFRPFPEGLFYEFEGRKYCEHDFQML | -0.089 ± 0.31 |
| AVCQRCQARFSPAERIVNSNGELYHEHEFVCAQCFRPFPEGLFYEFEGRKYCEHDFQML | -0.62 ± 0.12 |
| AVCQRCQARFSPAERIVNSNGELYHEHRFVCAQCFRPFPEGLFYEFEGRKYCEHDFQML | -0.718 ± 0.092 |
| AVCQRCQARFSPAERIVNSNGELYHEHWFVCAQCFRPFPEGLFYEFEGRKYCEHDFQML | -0.996 ± 0.21 |
| AVCQRCQARFSPAERIVNSNGELYHEHVFVCAQCFRPFPEGLFYEFEGRKYCEHDFQML | -0.77 ± 0.098 |
| AVCQRCQARFSPAERIVNSNGELYHEHKFVCAQCFRPFPEGLFYEFEGRKYCEHDFQML | -0.538 ± 0.14 |
| AVCQRCQARFSPAERIVNSNGELYHEHPFVCAQCFRPFPEGLFYEFEGRKYCEHDFQML | -1.13 ± 0.35 |
| AVCQRCQARFSPAERIVNSNGELYHEHSFVCAQCFRPFPEGLFYEFEGRKYCEHDFQML | -0.832 ± 0.13 |
| AVCQRCQARFSPAERIVNSNGELYHEHIFVCAQCFRPFPEGLFYEFEGRKYCEHDFQML | -0.728 ± 0.2 |
| AVCQRCQARFSPAERIVNSNGELYHEHAFVCAQCFRPFPEGLFYEFEGRKYCEHDFQML | -0.292 ± 0.083 |
| AVCQRCQARFSPAERIVNSNGELYHEHQFVCAQCFRPFPEGLFYEFEGRKYCEHDFQML | -0.872 ± 0.19 |
| AVCQRCQARFSPAERIVNSNGELYHEHDFVCAQCFRPFPEGLFYEFEGRKYCEHDFQML | -0.322 ± 0.2 |
| AVCQRCQARFSPAERIVNSNGELYHEHFFVCAQCFRPFPEGLFYEFEGRKYCEHDFQML | -0.994 ± 0.22 |
| AVCQRCQARFSPAERIVNSNGELYHEHGFVCAQCFRPFPEGLFYEFEGRKYCEHDFQML | -0.987 ± 0.14 |
| AVCQRCQARFSPAERIVNSNGELDHEHCFVCAQCFRPFPEGLFYEFEGRKYCEHDFQML | -0.444 ± 0.1 |
| AVCQRCQARFSPAERIVNSNGELQHEHCFVCAQCFRPFPEGLFYEFEGRKYCEHDFQML | -0.282 ± 0.068 |
| AVCQRCQARFSPAERIVNSNGELWHEHCFVCAQCFRPFPEGLFYEFEGRKYCEHDFQML | -0.123 ± 0.049 |

| Variant | abundance fitness |
| --- | --- |
| AVCQRCQARFSPAERIVNSNGELTHEHCFVCAQCFRPFPEGLFYEFEGRKYCEHDFQML | -0.232 ± 0.054 |
| AVCQRCQARFSPAERIVNSNGELCHEHCFVCAQCFRPFPEGLFYEFEGRKYCEHDFQML | -0.116 ± 0.055 |
| AVCQRCQARFSPAERIVNSNGELNHEHCFVCAQCFRPFPEGLFYEFEGRKYCEHDFQML | -0.474 ± 0.11 |
| AVCQRCQARFSPAERIVNSNGELKHEHCFVCAQCFRPFPEGLFYEFEGRKYCEHDFQML | -0.257 ± 0.061 |
| AVCQRCQARFSPAERIVNSNGELHHEHCFVCAQCFRPFPEGLFYEFEGRKYCEHDFQML | -0.16 ± 0.078 |
| AVCQRCQARFSPAERIVNSNGELGHEHCFVCAQCFRPFPEGLFYEFEGRKYCEHDFQML | -0.238 ± 0.047 |
| AVCQRCQARFSPAERIVNSNGELFHEHCFVCAQCFRPFPEGLFYEFEGRKYCEHDFQML | 0.007 ± 0.057 |
| AVCQRCQARFSPAERIVNSNGELIHEHCFVCAQCFRPFPEGLFYEFEGRKYCEHDFQML | -0.137 ± 0.062 |
| AVCQRCQARFSPAERIVNSNGELEHEHCFVCAQCFRPFPEGLFYEFEGRKYCEHDFQML | -0.303 ± 0.069 |
| AVCQRCQARFSPAERIVNSNGELVHEHCFVCAQCFRPFPEGLFYEFEGRKYCEHDFQML | -0.072 ± 0.054 |
| AVCQRCQARFSPAERIVNSNGELLHEHCFVCAQCFRPFPEGLFYEFEGRKYCEHDFQML | -0.057 ± 0.037 |
| AVCQRCQARFSPAERIVNSNGELYHEHCNVCAQCFRPFPEGLFYEFEGRKYCEHDFQML | -0.175 ± 0.12 |
| AVCQRCQARFSPAERIVNSNGELYHEHCKVCAQCFRPFPEGLFYEFEGRKYCEHDFQML | -0.407 ± 0.089 |
| AVCQRCQARFSPAERIVNSNGELYHEHCGVCAQCFRPFPEGLFYEFEGRKYCEHDFQML | -0.019 ± 0.1 |
| AVCQRCQARFSPAERIVNSNGELYHEHCCVCAQCFRPFPEGLFYEFEGRKYCEHDFQML | -0.012 ± 0.097 |
| AVCQRCQARFSPAERIVNSNGELYHEHCLVCAQCFRPFPEGLFYEFEGRKYCEHDFQML | -0.011 ± 0.051 |
| AVCQRCQARFSPAERIVNSNGELYHEHCIVCAQCFRPFPEGLFYEFEGRKYCEHDFQML | 0.015 ± 0.097 |
| AVCQRCQARFSPAERIVNSNGELYHEHCMVCAQCFRPFPEGLFYEFEGRKYCEHDFQML | 0.1 ± 0.077 |
| AVCQRCQARFSPAERIVNSNGELYHEHCPVCAQCFRPFPEGLFYEFEGRKYCEHDFQML | 0.029 ± 0.074 |
| AVCQRCQARFSPAERIVNSNGELYHEHCEVCAQCFRPFPEGLFYEFEGRKYCEHDFQML | -0.326 ± 0.12 |
| AVCQRCQARFSPAERIVNSNGELYHEHCAVCAQCFRPFPEGLFYEFEGRKYCEHDFQML | 0.207 ± 0.16 |
| AVCQRCQARFSPAERIVNSNGELYHEHCHVCAQCFRPFPEGLFYEFEGRKYCEHDFQML | 0.042 ± 0.11 |
